Series [1] concerns the molecule itself. The experiment in a line: crystal structure; DIR-cf1: protein in 15 mM Tris-HCl pH 7.4, 1 mM DTT, 6.25 mg/mL; reservoir 0.2 M CaCl2, 20% (w/v) PEG 3350; sitting drop, 20 °C; space group P212121; three chains per asymmetric unit.
Series [2] deals with the molecule itself. The experiment in a line: crystal structure; JRL-cf1: protein in 25 mM sodium phosphate pH 7.0, 10 mg/mL; reservoir 0.05 M MES pH 6.0, 28% (w/v) PEG 3350; sitting drop, 20 °C; non-reducing; space group P212121; two chains per asymmetric unit.
Series [3] concerns the molecule itself. The experiment in a line: crystal structure; JRL-cf2: protein in 25 mM sodium phosphate pH 7.0, 11 mg/mL; reservoir 0.2 M NH4I, 20% (w/v) PEG 3350; sitting drop, 20 °C; space group C2221; two chains per asymmetric unit.

3 proteins from paper PMC9405769, “The Crystal Structure of the Defense Conferring Rice Protein OsJAC1 Reveals a Carbohydrate Binding Site on the Dirigent-like Domain” (Biomolecules, 2022) can be followed below.

B1: OsJAC1-DIR domain (His-tag cleaved by thrombin) (domain or fragment, rice (Oryza sativa))
chain: SKLQITPCGMLVQGNQINFTKLYLHHTPAGPEQNQSAVTSNDKKTGLGCIVVNNWSVYDGIGSDAKLVAYAKGLHVFAGAWHNSFSLVFEDERLKGSTLQVMGLIVEEGDWAIVGGTGQFAMATGVILKKMQEQKQYGNIIELTIHGFCPLLKGS
notes: DIR (dirigent) domain, the N-terminal domain of the monocot chimeric jacalin OsJAC1, rice (Oryza sativa); traced residues include Lys6 (chain B), and the C-terminus of the model of chain A (cf1) is at Leu155; also called DIR-cf1; DIR-cf2; source: prepared as previously described in Huwa et al. (2021) [25]; His-tag removed with thrombin, no further purification
The term stoichiometry N denotes the number of molecules, sites or subunits per partner or assembly. Regarding B1, in series [1], the “stoichiometry N” value turned out to be 3.

B2: OsJAC1-JRL domain (His-tagged, crystal form 1) (domain or fragment, rice (Oryza sativa))
chain: QCPVTKIGPWGSSHEGTVQDITESPKRLESITLYHGWSVDSISFTYLDHAGEKHKAGPWGGPGGDPIMIEFGSSEFLKEVSGTFGPYEGSTVITSINFITNKQTYGPFGRQEGTPFSVPAQNNSSIVGFFGRSGKYINAVGVYVQPI
modifications: symmetric inter-subunit disulfide bond at Cys161 (Cys161-Cys161)
notes: JRL (jacalin-related lectin) domain of the monocot chimeric jacalin OsJAC1, rice (Oryza sativa); the model's termini are Gln160 and Pro305 of full-length OsJAC1 (residue range 160-306 used for superposition); also called JRL-cf1; OsJAC1-JRL (cf1); source: prepared as previously described in Huwa et al. (2021) [25]
For B2, in series [2], the “stoichiometry N” value stood at 2.

B3: OsJAC1-JRL domain (Strep-tagged, crystal form 2) (domain or fragment, rice (Oryza sativa))
chain: B2 chain
modifications: symmetric inter-subunit disulfide bond at Cys161 (Cys161-Cys161)
notes: JRL (jacalin-related lectin) domain of the monocot chimeric jacalin OsJAC1, rice (Oryza sativa); residue range 160-306 of full-length OsJAC1 used for superposition; also called JRL-cf2; OsJAC1-JRL (cf2); source: prepared as previously described in Huwa et al. (2021) [25]
For the protein B3, in series [3], the “stoichiometry N” value is 2.
